# Reference: article PMC8637920, “Structure, Function and Regulation of a Second Pyruvate Kinase Isozyme in Pseudomonas aeruginosa” (Frontiers in Microbiology, 2021)
# Key:
# PykFPA = biological target: T1, PykFPA (Pseudomonas aeruginosa, UniProt Q9I3L4); assay: lactate dehydrogenase-coupled assay, activation; assay type: biochemical; settings: K-type activator (shifts S0.5 of PEP), 2 mM ADP, allosteric
# T1 construct: gene pykF; full-length, 477 residues, untagged, from pET-19m in E. coli BL21(DE3)
# T1 sequence (Q9I3L4 1-477): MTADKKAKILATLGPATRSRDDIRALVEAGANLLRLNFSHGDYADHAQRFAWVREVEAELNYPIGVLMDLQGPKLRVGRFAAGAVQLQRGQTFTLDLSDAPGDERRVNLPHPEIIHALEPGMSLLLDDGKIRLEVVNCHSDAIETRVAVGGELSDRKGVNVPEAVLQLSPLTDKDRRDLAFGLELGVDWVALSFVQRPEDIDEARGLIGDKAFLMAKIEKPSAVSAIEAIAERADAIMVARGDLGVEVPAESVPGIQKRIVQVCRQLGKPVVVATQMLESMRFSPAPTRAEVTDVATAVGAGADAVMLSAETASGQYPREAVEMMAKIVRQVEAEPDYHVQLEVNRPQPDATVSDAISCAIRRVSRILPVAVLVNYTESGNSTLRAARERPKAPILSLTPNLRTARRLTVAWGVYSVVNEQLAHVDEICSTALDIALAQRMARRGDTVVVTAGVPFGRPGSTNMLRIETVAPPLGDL
# [1] = substrate: C=C(OP(=O)(O)O)C(=O)O; assay: lactate dehydrogenase-coupled assay; assay type: biochemical, Pseudomonas aeruginosa; settings: 2 mM ADP; Mg2+; no regulator added; sigmoidal
# [2] = substrate: Nc1ncnc2c1ncn2[C@@H]1O[C@H](COP(=O)(O)OP(=O)(O)O)[C@@H](O)[C@H]1O; assay: lactate dehydrogenase-coupled assay; assay type: biochemical, Pseudomonas aeruginosa; settings: 5 mM PEP; Mg2+; no regulator added; hyperbolic
# [3] = biological target: the molecule itself; assay: AUC; purified PykFPA in solution; carried out as previously described (Abdelhamid et al., 2019); analysed with SEDFIT and SEDNTERP
molecule,measurement,setting,value
O=C(CO)[C@H](O)[C@H](O)COP(=O)(O)O [ribulose 5-phosphate],"lactate dehydrogenase-coupled assay, activation",PykFPA; 0.5 mM,"ribulose 5-phosphate (RL5P), and R5P]"
O=P(O)(O)OC[C@H]1OC(O)[C@H](O)[C@@H]1O (stereo partly shown) [ribose 5-phosphate],"lactate dehydrogenase-coupled assay, activation",PykFPA; 0.15 mM,"ribulose 5-phosphate (RL5P), and R5P]"
O=C[C@H](O)COP(=O)(O)O [glyceraldehyde 3-phosphate],"lactate dehydrogenase-coupled assay, activation",PykFPA; 1 mM,"to a lesser extent, by the EDP intermediates G6P and G3P"
O=C(CO)[C@@H](O)[C@H](O)COP(=O)(O)O [xylulose 5-phosphate],"lactate dehydrogenase-coupled assay, activation",PykFPA; 0.5 mM,strongly activated by metabolites from the non-oxidative PPP [(xylulose 5-phosphate (X5P)
Nc1ncnc2c1ncn2[C@@H]1O[C@H](COP(=O)(O)O)[C@@H](O)[C@H]1O [adenosine 5′-monophosphate],"lactate dehydrogenase-coupled assay, activation",PykFPA; 1 mM,PykFPA (but not PykAPA) was activated by AMP
O=P(O)(O)OC[C@H]1OC(O)[C@H](O)[C@@H](O)[C@@H]1O (stereo partly shown) [glucose 6-phosphate],"lactate dehydrogenase-coupled assay, activation",PykFPA; 1 mM,"to a lesser extent, by the EDP intermediates G6P and G3P"
"Pseudomonas aeruginosa pyruvate kinase isozyme PykF (PykFPA) (enzyme, UniProt Q9I3L4 1-477, looked up, Pyruvate kinase PykF of Pseudomonas aeruginosa (PA1498), untagged full-length protein, 477 residues, monomer 51.5 kDa; also called PA1498; source: E. coli BL21 (DE3) with plasmid pET-19m (pykF), purified) MTADKKAKILATLGPATRSRDDIRALVEAGANLLRLNFSHGDYADHAQRFAWVREVEAELNYPIGVLMDLQGPKLRVGRFAAGAVQLQRGQTFTLDLSDAPGDERRVNLPHPEIIHALEPGMSLLLDDGKIRLEVVNCHSDAIETRVAVGGELSDRKGVNVPEAVLQLSPLTDKDRRDLAFGLELGVDWVALSFVQRPEDIDEARGLIGDKAFLMAKIEKPSAVSAIEAIAERADAIMVARGDLGVEVPAESVPGIQKRIVQVCRQLGKPVVVATQMLESMRFSPAPTRAEVTDVATAVGAGADAVMLSAETASGQYPREAVEMMAKIVRQVEAEPDYHVQLEVNRPQPDATVSDAISCAIRRVSRILPVAVLVNYTESGNSTLRAARERPKAPILSLTPNLRTARRLTVAWGVYSVVNEQLAHVDEICSTALDIALAQRMARRGDTVVVTAGVPFGRPGSTNMLRIETVAPPLGDL",K0.5,[1],1.03 ± 0.01 mM
same,kcat,[1],379 s⁻¹
same,kcat/Km,[1],367000 M⁻¹ s⁻¹
same,K0.5,[2],0.11 ± 0.01 mM
same,kcat,[2],433 s⁻¹
same,kcat/Km,[2],3.94e+06 M⁻¹ s⁻¹
same,stoichiometry N,[3],4
